Legend:
[1] = target: T1, human glypican-6 His-tagged protein (R&D Systems) (human, UniProt Q9Y625 24-529, limits assumed); experiment: ELISA, plate coated with 1 µg/mL His-tagged glypican
T1 construct: Bought; not shown: His tag
T1 sequence (looked up): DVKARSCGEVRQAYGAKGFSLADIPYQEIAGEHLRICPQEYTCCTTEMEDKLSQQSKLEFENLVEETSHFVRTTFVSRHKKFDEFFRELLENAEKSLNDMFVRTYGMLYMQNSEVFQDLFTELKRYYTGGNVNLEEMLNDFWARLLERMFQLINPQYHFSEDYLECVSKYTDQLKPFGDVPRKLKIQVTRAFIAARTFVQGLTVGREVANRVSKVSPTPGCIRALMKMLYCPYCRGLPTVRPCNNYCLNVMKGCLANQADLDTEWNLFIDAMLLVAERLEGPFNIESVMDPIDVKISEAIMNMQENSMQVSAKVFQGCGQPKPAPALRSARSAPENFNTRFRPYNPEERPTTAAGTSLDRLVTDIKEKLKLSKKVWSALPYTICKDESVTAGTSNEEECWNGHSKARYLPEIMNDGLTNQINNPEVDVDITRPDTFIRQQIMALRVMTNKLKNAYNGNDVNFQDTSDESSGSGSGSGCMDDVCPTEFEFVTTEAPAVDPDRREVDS
Method: (§1) To perform the ELISA, Maxisorp 96-well plates (Nunc) were coated overnight at 4° C. with 1 μg/mL of human glypican His-tagged proteins (glypican-1, glypican-2, glypican-3, glypican-5, and glypican-6 all from R&D Systems) in PBS. The plates were blocked with casein buffer (ThermoFisher), and then CAT-07 was plated in an 11-step series of 2-fold dilutions starting at 150 ng/mL. The plates was incubated, shaking, at room temperature for 2 h. After washing in PBS 0.1% Tween-20, bound analyte was detected with a donkey anti-human Fc-γ-specific horseradish peroxidase (HRP)-conjugated secondary antibody. Signals were visualized with Ultra TMB (Pierce) and quenched with 2 N H₂SO₄. Absorbance at 450 nm was determined using a Molecular Devices SpectraMax M5 plate reader and the data were analyzed using GraphPad Prism.

[2] = target: T2, human glypican-1 His-tagged protein (R&D Systems) (human, UniProt P35052 24-530, limits assumed); experiment: as above
T2 construct: Bought; not shown: His tag
T2 sequence (looked up): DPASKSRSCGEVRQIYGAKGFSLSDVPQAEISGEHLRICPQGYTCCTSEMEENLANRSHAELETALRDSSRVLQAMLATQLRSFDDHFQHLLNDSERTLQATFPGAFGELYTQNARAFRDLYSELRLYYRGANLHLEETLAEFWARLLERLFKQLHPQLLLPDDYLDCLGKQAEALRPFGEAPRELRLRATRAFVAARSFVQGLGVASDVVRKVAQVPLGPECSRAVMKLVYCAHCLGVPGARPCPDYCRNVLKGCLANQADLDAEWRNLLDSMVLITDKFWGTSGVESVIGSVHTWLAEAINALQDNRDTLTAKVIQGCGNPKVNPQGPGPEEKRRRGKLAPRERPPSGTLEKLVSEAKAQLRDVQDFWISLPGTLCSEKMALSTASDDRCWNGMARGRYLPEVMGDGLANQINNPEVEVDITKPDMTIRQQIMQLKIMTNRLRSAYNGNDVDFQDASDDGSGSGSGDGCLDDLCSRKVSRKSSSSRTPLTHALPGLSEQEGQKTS
Method: as §1

[3] = target: T3, human glypican-2 His-tagged protein (R&D Systems) (human, UniProt Q8N158 24-554, limits assumed); experiment: as above
T3 construct: Bought; not shown: His tag
T3 sequence (looked up): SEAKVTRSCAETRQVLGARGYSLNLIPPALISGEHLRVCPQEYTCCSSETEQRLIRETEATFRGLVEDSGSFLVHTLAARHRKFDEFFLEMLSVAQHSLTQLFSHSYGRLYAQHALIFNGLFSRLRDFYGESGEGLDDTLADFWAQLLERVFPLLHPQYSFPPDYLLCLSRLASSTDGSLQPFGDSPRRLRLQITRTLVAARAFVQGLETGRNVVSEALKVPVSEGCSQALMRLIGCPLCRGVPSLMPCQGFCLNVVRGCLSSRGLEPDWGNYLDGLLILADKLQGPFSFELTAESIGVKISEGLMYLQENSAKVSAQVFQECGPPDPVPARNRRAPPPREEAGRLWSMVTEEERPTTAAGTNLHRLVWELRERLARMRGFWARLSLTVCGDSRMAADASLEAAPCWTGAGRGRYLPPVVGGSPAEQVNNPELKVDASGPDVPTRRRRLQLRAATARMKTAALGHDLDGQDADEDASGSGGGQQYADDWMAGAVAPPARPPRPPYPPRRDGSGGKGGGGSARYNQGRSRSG
Method: as §1

[4] = target: T4, human glypican-5 His-tagged protein (R&D Systems) (human, UniProt P78333 25-551, limits assumed); experiment: as above
T4 construct: Bought; not shown: His tag
T4 sequence (looked up): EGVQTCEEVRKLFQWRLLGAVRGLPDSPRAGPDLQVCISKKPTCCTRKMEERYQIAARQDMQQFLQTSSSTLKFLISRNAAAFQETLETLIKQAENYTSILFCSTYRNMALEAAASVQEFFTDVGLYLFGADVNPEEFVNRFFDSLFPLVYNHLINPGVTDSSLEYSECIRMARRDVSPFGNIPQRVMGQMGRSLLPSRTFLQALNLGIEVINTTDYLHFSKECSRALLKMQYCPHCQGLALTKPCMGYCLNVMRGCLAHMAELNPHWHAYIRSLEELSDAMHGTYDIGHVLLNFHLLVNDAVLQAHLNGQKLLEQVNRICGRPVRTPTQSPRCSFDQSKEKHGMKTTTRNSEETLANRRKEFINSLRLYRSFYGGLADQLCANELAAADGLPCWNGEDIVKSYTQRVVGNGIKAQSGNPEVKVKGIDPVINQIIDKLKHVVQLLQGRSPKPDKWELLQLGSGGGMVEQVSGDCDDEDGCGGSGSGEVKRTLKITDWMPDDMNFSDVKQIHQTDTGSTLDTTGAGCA
Method: as §1

[5] = target: T5, human glypican-3-His (R&D Systems) (human, UniProt P51654 25-559); experiment: ELISA, plate coated with 1 µg/mL human glypican-3-His
T5 construct: Bought His-tagged protein; also called recombinant human glypican-3 protein; GPC3; not shown: His tag
T5 sequence (P51654 25-559 limits assumed): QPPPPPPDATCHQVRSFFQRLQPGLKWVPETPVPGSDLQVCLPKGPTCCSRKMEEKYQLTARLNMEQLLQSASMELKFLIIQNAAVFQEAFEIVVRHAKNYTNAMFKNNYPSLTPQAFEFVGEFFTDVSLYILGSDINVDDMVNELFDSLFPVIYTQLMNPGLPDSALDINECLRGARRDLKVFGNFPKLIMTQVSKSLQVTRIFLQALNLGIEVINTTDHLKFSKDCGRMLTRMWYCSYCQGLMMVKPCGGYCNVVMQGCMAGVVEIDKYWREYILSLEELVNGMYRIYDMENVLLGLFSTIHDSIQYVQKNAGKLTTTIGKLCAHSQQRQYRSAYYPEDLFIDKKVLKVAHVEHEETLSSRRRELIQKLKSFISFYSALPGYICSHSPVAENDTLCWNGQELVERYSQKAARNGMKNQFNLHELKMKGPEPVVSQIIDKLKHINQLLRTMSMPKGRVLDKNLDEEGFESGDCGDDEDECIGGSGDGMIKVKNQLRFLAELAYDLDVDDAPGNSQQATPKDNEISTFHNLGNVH
Method: as §1, with “human glypican-3-His (R&D” for “human glypican His-tagged proteins (glypican-1, glypican-2, glypican-3, glypican-5, and glypican-6 all from R&D”, “The plate was” for “The plates were”, “The plate” for “The plates”

B1: CAT-07 monoclonal antibody (antibody, human IgG1, kappa, V domains shown)
VH: QVQLVQSGAEVKKPGASVKVSCKASGYTFTSYFLHWVRQAPGQGLEWMGIIDPPTGRTTYAQKFQGRVTMTRDTSTSTVYMELSSLRSEDTAVYYCARGNYGGRYFDYWGQGTLVTVSS
VL: not shown
B1: no binding (tested: 2-fold dilutions starting at 150 ng/mL) [1]; no binding (tested: 2-fold dilutions starting at 150 ng/mL) [2]; no binding (tested: 2-fold dilutions starting at 150 ng/mL) [3]. B1: no binding (tested: 2-fold dilutions starting at 150 ng/mL) [4]; binds [5].
